From patent US20110183329A1, “PROTEIN PHOSPHATASE-1 INHIBITOR-1 POLYMORPHISM AND METHODS OF USE” (priority 2008, published 2011) come the findings set out here.

Assay [1] has as its system PLN. Description: Western blotting of PLN phosphorylation in infected cardiomyocytes. The class given is cell-based, rat.
The test system of assay [2] is RyR. As to the kind of experiment: Western blotting of RyR phosphorylation in infected cardiomyocytes. The class given is cell-based. The note with it: adult rat cardiomyocytes. As for the experimental part: (§1) Recombinant adenovirus carrying empty vector, wild-type (WT) G147 inhibitor-1, or D147 inhibitor-1 was generated by using the Adeno-X expression system kit (Clontech, Mountain View, Calif.). All of the adenoviruses also expressed GFP as an indicator of transfection efficiency. Two hours after isolation and culture, myocytes seeded on coverslips or dishes were infected with adenovirus in diluted media, at a multiplicity of infection of 500, for 2 h before the addition of a suitable volume of culture media. Twenty-four hours later, the myocytes were washed in KHB including 1 mM Ca and harvested for quantitative immunoblotting or use in the experiments outlined below.
(§2) Alterations in the phosphorylation and/or total level of proteins were analyzed from whole heart homogenates, with the exception of MyBP-C, which was analyzed from a myofibril protein preparation, using Western blotting. 2-70 μg of protein were separated on polyacrylamide gels (6-15%) and transferred to nitrocellulose membranes. The membranes were incubated with primary antibodies, which were visualized by peroxidase-conjugated secondary antibodies (Amersham Biosciences) and enhanced chemiluminescence (Supersignal West Pico Chemiluminescent, Pierce). The bands were then quantified with densitometry, using ImageQuant 5.2 (GE Healthcare, Little Chalfont, UK). […]
Background: A western blot detects proteins with antibodies after separation by electrophoresis.

Assay [3] relates to troponin I. As to the kind of experiment: Western blotting of troponin I phosphorylation in infected cardiomyocytes. The class given is cell-based. To be noted: adult rat cardiomyocytes. As for the experimental part: as §1, §2
Assay [4] deals with adult rat cardiomyocytes. Description: Contractile parameter measurements in adenovirus-infected myocytes. The class given is cell-based. The note with it: for contractility response to isoproterenol (fractional shortening, contraction, relaxation): adenovirus-infected cardiomyocytes; for cellular contractility (fractional shortening, contracting velocity, relaxing velocity): basal conditions, overexpression by adenovirus, 24 h. As for the experimental part:
Adult rat ventricular myocytes were isolated and cultured. Hearts from adult male Sprague-Dawley rats (8 wk old) were perfused with modified Krebs-Henseleit buffer (KHB) (118 mM NaCl, 4.8 mM KCl, 25 mM HEPES, 1.25 mM K2HPO4, 1.25 mM MgSO4, 11 mM glucose, 5 mM taurine, and 10 mM butanedione monoxime; pH 7.4) for 5 min. Subsequently, hearts were perfused with an enzyme solution [KHB containing 0.7 mg/ml collagenase type II (263 U/mg), 0.2 mg/ml hyaluronidase, 0.1% BSA, and 25 μM Ca]. Ten and 15 min later, 25 and 50 μM Ca, respectively, were added to the perfusion buffer, so that the Ca concentration was raised to 100 μM, and perfusion was continued for another 5 min. Finally, left ventricular tissue was excised, minced, pipette dissociated, and filtered through a […] screen. Cells were harvested and resuspended in KM including 1 mM Ca and 1% BSA. After a brief centrifugation, the cells were resuspended in KHB including 1.8 mM Ca and 1% BSA, centrifuged briefly again, and resuspended in Dulbecco's modified Eagle's medium containing 2 mg/ml BSA, 2 mM L-camitine, 5 mM creatine, 5 mM taurine, 1.8 mM Ca, 100 IU/ml penicillin, and 100 μg/ml streptomycin. Cells were then counted and plated on laminin-coated glass coverslips or dishes.
as §1
Myocytes that adhered to the coverslips were bathed in temperature (37° C.)—equilibrated KHB containing 1 mM Ca for 20 min. The myocyte suspension was then placed in a Plexiglas chamber, which was positioned on the stage of an inverted epifluorescence microscope (Diaphot 200; Nikon, Tokyo, Japan). Myocyte contraction was field-stimulated by a Grass S5 stimulator (0.5 Hz, square. waves; Grass Technologies, An Astro-Med, Inc., West Warwick, R.I., USA), and contractions were videotaped and digitized on a computer. A video edge motion detector (Crescent Electronics, Windsor, ON, Canada) was used to measure myocyte length and cell shortening, from which the percent fractional shortening (% FS) and maximal rates of contraction and relaxation (±dL/dt) were calculated. To investigate the response of adult rat cardiomyocytes to isoproterenol, a maximal concentration of isoproterenol (100 nM) was added to the KHB (including 1 mM Ca) in the Plexiglas chamber, and the above-mentioned measurements were repeated. All data were analyzed using software from Felix 1.1 software (Photon Technology International, Birmingham, N.J., USA) and IonWizard (IonOptix Corp., Milton, Mass., USA).

Assay [5] deals with major regulatory proteins related to cardiac calcium homeostasis. As to the kind of experiment: Quantitative immunoblotting of calcium homeostasis regulatory proteins after adenoviral gene transfer. The assay is classed as cell-based, rat. To be noted: 24 h post-transfection.
From the text: FIG. 2. Isolated adult rat cardiomyocytes were infected with adenoviruses expressing GFP as control (empty), G147 inhibitor-1 or D147 inhibitor-1. (A) Images of infected cardiomyocytes and GFP expression. (B) Representative western blots display expression levels of inhibitor-1, SERCA 2a, PLN, CSQ, and L-type Ca-channel (LTCC).
as §1

Where a chain is given by its changes, count along the chain named.

Regarding `CC(C)NCC(O)c1ccc(O)c(O)c1` (centres unmarked) [isoproterenol, reference compound], the “effect of isoproterenol on phosphorylation of PLN in control cells” value in assay [1] (control cells) was “increased”. In assay [2], the “effect of isoproterenol treatment on RyR phosphorylation” value was “increased”. Also, in assay [3], the “effect of isoproterenol treatment on troponin I phosphorylation” value is on record as “increased”. Further, in assay [4] (100 nM isoproterenol, control virus), the “effect of isoproterenol on contractility of control-virus cardiomyocytes” value was “enhanced contractility”.

B1: WT inhibitor-1: wild-type human protein phosphatase-1 inhibitor-1 (SEQ ID NO:13) overexpressed by recombinant adenovirus (protein, listed as Homo sapiens)
chain: MEQDNSPRKIQFTVPLLEPHLDPEAAEQIRRRRPTPATLVLTSDQSSPEIDEDRIPNPHLKSTLAMSPRQRKKMTRITPTMKELQMMVEHHLGQQQQGEEPEGAAESTGTQESRPPGIPDTEVESRLGTSGTAKKTAECIPKTHERGSKEPSTKEPSTHIPPLDSKGANSV
In the case of B1, in assay [1] (in the presence of isoproterenol), the “level of phosphorylated PLN on serine 16 depressed” value was roughly 50%. The “phosphorylation of PLN” value in assay [1] (in the presence of isoproterenol, versus control cells) was “similarly increased”. Further, in assay [5], the “levels of the major regulatory proteins related to cardiac calcium homeostasis” value is given as “did not alter”. Moreover, the “contractility response to isoproterenol (fractional shortening, contraction, relaxation)” value in assay [4] (100 nM isoproterenol) is listed as “enhanced contractility”. The “cellular contractility (fractional shortening, contracting velocity, relaxing velocity)” value in assay [4] was “did not alter”.

B2: D147 inhibitor-1: human inhibitor-1 with aspartic acid for glycine at position 147 (SEQ ID NO:14), overexpressed by recombinant adenovirus (protein, listed as Homo sapiens)
chain: B1 chain with G147D
For the molecule B2, the “levels of the major regulatory proteins related to cardiac calcium homeostasis” value in assay [5] is reported as “did not alter”. Moreover, in assay [4] (10 nM isoproterenol), the “contractility response at lower isoproterenol dose” value is “differences similar to those observed in 100 nM”. In assay [4] (100 nM isoproterenol), the “contractile parameters depressed compared with WT inhibitor-1-stimulated cells” value is 24-28% and the “contractility response to isoproterenol (fractional shortening, contraction, relaxation)” value is “significantly blunted”. Besides, the “cellular contractility (fractional shortening, contracting velocity, relaxing velocity)” value in assay [4] was “did not alter”.
